This assay deals with human GPC3 on GPC3-positive cells (HepG2, Huh-7, SK-Hep-1 GPC3) (human) (UniProt P51654). Nature of the assay: cell-based or functional assay.

Take “chimeric antigen receptor GC33-28BBZ (GC33 scFv-CD28a-CD28b-CD137-CD3 zeta) on T cells”: the killing rate of CAR T cells on Huh-7 cells, effector target ratio 1:3 was determined as 23%. Consider “chimeric antigen receptor GC33-28Z (GC33 scFv-CD28a-CD28b-CD3 zeta) on T cells”, for which the killing rate of CAR T cells on Huh-7 cells, effector target ratio 1:1 turned out to be 22% and the killing rate of CAR T cells on Huh-7 cells, effector target ratio 1:3 is 6%.

For the origin of these results see US20190046659A1.
